Biological target: antibody to hCG
Assay: competition: unlabelled hCG displacing hCG-I^125 from the antibody to hCG

- IC50: 0.01 µM
Substance: hCG (from UniProt P01215 25-116; P0DN86 21-165) (ligand)

Source: US6475806
